Data published in PMC3136439, “Auxin Response Factor2 (ARF2) and Its Regulated Homeodomain Gene HB33 Mediate Abscisic Acid Response in Arabidopsis”.
Positions count from the first letter of the chain named.

T1: GST-ARF2 N-terminus (ARF2-N1-470, DNA-binding domain) (Arabidopsis thaliana, UniProt Q94JM3 1-470)
T1 sequence: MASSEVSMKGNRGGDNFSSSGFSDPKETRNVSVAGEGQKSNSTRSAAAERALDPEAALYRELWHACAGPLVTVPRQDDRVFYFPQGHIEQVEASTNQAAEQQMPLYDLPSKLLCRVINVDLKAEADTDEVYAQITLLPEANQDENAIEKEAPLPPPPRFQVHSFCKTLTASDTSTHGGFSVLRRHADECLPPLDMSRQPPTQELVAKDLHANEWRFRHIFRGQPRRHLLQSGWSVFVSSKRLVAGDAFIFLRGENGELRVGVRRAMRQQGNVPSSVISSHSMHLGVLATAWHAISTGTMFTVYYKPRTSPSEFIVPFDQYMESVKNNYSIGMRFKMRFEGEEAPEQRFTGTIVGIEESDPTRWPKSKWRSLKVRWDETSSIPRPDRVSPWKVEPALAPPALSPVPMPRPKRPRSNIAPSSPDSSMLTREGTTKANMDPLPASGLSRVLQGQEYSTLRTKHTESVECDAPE

B1: HB33 promoter probe (dsDNA)
DNA 1: CCAAATTGTCTCTTATAATCCGATCTCAAAGGTTGGCTTGTTGGGAGCACTGAGACATCAAAC
DNA 2: GTTTGATGTCTCAGTGCTCCCAACAAGCCAACCTTTGAGATCGGATTATAAGAGACAATTTGG
B2: HB33 promoter mProbe (mP) (dsDNA)
DNA 1: B1 DNA 1 with T9A, T11A, A53T, A55T
DNA 2: B1 DNA 2 with T9A, T11A, A53T, A55T

Biological target: T1, GST-ARF2 N-terminus (ARF2-N1-470, …)
Experiment: EMSA; poly(dI-dC); EMSA: 5x buffer 50 mM HEPES-KOH pH 7.5, 375 mM KCl, 6.25 mM MgCl (so in the source), 1 mM DTT, 0.5 ug/mL BSA, 25% glycerol; 25 fmol probe, 6 ug protein, 1 ug poly(dI-dC) in 20 ul, room temperature 20 min; 6.5% native PAGE in TGE pH 8.3
Conditions: protein: recombinant; tags: GST; chain copies: 2; blunt

Row | Binder | binding result
1 | B1 | binds
2 | B2 | no binding
